Substitutions are numbered along the chain they refer to. Names and notes keep the numbering of the source.
B1: ZTL G46A:G80R (LOV domain construct, residues 29-165) (domain or fragment, UniProt Q94BT6 29-165, looked up)
chain: GGPIPYPVGNLLHTAPCAFVVTDAVEPDQPIIYVNTVFEMVTGYRAEEVLGRNCRFLQCRGPFAKRRHPLVDSMVVSEIRKCIDEGIEFQGELLNFRKDGSPLMNRLRLTPIYGDDDTITHIIGIQFFIETDIDLGP
B2: ZTL G46S:G80R (LOV domain construct, residues 29-165) (domain or fragment, UniProt Q94BT6 29-165, looked up)
chain: B1 chain with A18S

Legend:
[1] = target: the molecule itself; assay: crystal structure
[2] = target: the molecule itself; assay: SEC-SAXS

Protein	binding result [1]	stoichiometry N [2]
B1	binds	–
B2	–	2
